Measured values reported in patent US20220348679A1 (MYTHIC THERAPEUTICS, published 2022).

T1: LRRC15 on U-87 MG (LRRC15+) cells (UniProt Q8TF66 22-581, limits assumed)
T1 construct: whole, on cells; also called cell surface LRRC15
T1 sequence (looked up): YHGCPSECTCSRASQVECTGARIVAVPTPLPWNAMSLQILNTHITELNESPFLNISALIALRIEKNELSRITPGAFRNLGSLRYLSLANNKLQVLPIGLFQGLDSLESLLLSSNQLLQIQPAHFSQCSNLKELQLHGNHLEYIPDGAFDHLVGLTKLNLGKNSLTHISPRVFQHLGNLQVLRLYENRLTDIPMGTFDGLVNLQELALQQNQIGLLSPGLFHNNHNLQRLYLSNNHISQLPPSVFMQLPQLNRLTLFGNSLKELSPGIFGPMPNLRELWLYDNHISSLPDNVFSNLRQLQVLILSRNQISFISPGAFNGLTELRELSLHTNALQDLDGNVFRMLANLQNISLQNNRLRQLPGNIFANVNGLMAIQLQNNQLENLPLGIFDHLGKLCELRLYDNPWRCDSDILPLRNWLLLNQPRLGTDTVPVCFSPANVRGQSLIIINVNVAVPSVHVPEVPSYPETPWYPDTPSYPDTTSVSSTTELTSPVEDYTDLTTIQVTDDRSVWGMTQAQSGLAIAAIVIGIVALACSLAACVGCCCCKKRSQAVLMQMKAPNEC


Target: T1, LRRC15 on U-87 MG (LRRC15+) cells
Experiment: flow cytometry on U-87 MG (LRRC15+) cells; the text of Example 22 calls the fitted value a dissociation constant KD
Protocol: Binding affinity of selected LRRC15 pH engineered antibody variants from Example 9 were measured on U-87 MG (LRRC15+) cells. 100,000 U-87 MG cells (ATCC HTB-14) were seeded per well in a 96 well deep well plate. Samrotamab and a pH engineered antibody variant were serially diluted at a 1:3 dilution in ice cold FC buffer (phosphate buffered saline (PBS), pH 7.4+2 mM ethylenediaminetetraacetic acid (EDTA)+2% (v/v) HI FBS). The plates were spun at 2,000 RPM for 2 minutes, the supernatant was removed, and 100 μL of diluted antibody was added to each well with final concentration ranging from 60 nM to 1 pM and incubated for 2 hours at 4° C. Post incubation, the cells were spun at 2000 rpm for 2 min and supernatant was discarded. Cells were washed twice with 500 μL of ice-cold FC buffer and resuspended with 100 μL of FC buffer. The cells were then transferred from the deep well plate to 96 well round bottom plate, spun at 2000 rpm for 2 min and incubated with 100 μL of 10 μg/mL Alexa Fluor 488 conjugated goat anti-human IgG secondary antibody (ThermoFisher Scientific, A11013) for 30 min. Post incubation, cells were washed with FC buffer and resuspended in 100 μL of FC buffer to read on a BD Accuri C6 flow cytometer. Binding affinity was measured as a dissociation constant KD by GraphPad Prism assuming Michaelis-Menten binding kinetics.

IC50	Binder
228 pM	samrotamab (antibody, V domains shown, IgG; also called MYT0963) VH: EVQLVQSGAEVKKPGASVKVSCKASGYKFSSYWIEWVKQAPGQGLEWIGEILPGSDTTNYNEKFKDRATFTSDTSINTAYMELSRLRSDDTAVYYCARDRGNYRAWFGYWGQGTLVTVSS VL: DIQMTQSPSSLSASVGDRVTITCRASQDISNYLNWYQQKPGGAVKFLIYYTSRLHSGVPSRFSGSGSGTDYTLTISSLQPEDFATYFCQQGEALPWTFGGGTKVEIK
484 pM	MYT0971 (antibody, V domains shown, IgG) VH: EVQLVQSGAEVKKPGASVKVSCKASGYKFSSYHIEWVKQAPGQGLEWIGEILPGSDTTNYNEKFKDRATFTSDTSINTAYMELSRLRSDDTAVYYCARDRGNYRAWFGYWGQGTLVTVSS VL: DIQMTQSPSSLSASVGDRVTITCRASQDISNYLNWYQQKPGGAVKFLIYYTSRLHSGVPSRFSGSGSGTDYTLTISSLQPEDFATYFCQQGEALPWTFGGGTKVEIK
